This note sets out measurements from PMC8304084, “A Concerted Action of UBA5 C-Terminal Unstructured Regions Is Important for Transfer of Activated UFM1 to UFC1” (International Journal of Molecular Sciences, 2021).

Usually pKd stands for the negative decadic logarithm of the Kd, by convention in mol/L. The stoichiometry N is the number of molecules, sites or subunits per partner or assembly.

pKd: −log10 of the molar value.

Assay [1] deals with Full length UFC1, residues 1–167 (UniProt Q9Y3C8). Put plainly: ITC; VP-ITC, 25 °C; UBA5 peptides (~400 µM) titrated into 20–25 µM binding partner; 25 mM HEPES pH 7.5, 100 mM NaCl; one-site model; a single profile for each interaction. On the technique in general: In ITC the heat of successive injections is recorded.
Assay [2] has as its target Full length UBA5 (res. 1–404) C250K mutant stably conjugated to UFM1 (UniProt Q9GZZ9). Put plainly: ITC; UFC1 titrated to FL^1–404 and to FL^1–404 C250K~UFM1; 25 °C; 25 mM HEPES pH 7.5, 100 mM NaCl; one-site model.
The target in assay [3] is Full length UBA5, residues 1–404 (human) (UniProt Q9GZZ9). The assay is described as above.

Sequence of Full length UBA5 (res. 1–404) C250K mutant stably conjugated to UFM1 (Q9GZZ9 whole entry C250K, chain 1 of 2, the tested form may be a part): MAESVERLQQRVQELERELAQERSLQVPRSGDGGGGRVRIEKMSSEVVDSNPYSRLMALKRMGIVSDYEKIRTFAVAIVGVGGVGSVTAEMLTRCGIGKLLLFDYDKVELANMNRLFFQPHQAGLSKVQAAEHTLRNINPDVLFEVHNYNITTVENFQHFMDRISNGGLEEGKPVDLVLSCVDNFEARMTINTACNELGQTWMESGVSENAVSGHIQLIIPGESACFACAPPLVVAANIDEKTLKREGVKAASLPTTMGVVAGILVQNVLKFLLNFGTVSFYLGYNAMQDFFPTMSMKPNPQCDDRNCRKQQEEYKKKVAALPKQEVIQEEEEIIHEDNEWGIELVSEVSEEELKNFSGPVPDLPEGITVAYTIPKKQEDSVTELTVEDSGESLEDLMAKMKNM
Sequence of Full length UBA5 (res. 1–404) C250K mutant stably conjugated to UFM1 (P61960 other isoform, or with tags, fused parts or gaps C250K, chain 2 of 2, further chain): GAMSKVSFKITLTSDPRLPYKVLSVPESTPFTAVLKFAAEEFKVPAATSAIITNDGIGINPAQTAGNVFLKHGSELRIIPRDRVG
Sequence of UBA5 C-terminal regions R2 and R3, residues 359–404 (Q9GZZ9 other isoform, or with tags, fused parts or gaps): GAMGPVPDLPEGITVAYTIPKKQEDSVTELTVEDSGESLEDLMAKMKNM
Sequence of UBA5 C-terminal region R2, residues 359–376 (Q9GZZ9 other isoform, or with tags, fused parts or gaps): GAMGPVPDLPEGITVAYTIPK

In the case of “UBA5 C-terminal region R2, residues 359–376 (from UniProt Q9GZZ9 359-376) (peptide)”, the pKd in assay [1] was below 4.30.
In assay [2], “Full length UFC1, residues 1–167 (from UniProt Q9Y3C8 1-167) (enzyme)” had a Ka of 870000 M⁻¹, a pKd of 5.92, a dH of -8.21 kcal/mol and a stoichiometry N of 1.03. For the same substance, in assay [3], the Ka was 720000 M⁻¹, the pKd was 5.85, the dH is -7.62 kcal/mol and the stoichiometry N worked out at 0.97.
For “UBA5 C-terminal part, residues 325–404 (from UniProt Q9GZZ9 325-404) (domain or fragment)”, in assay [1], the Ka was 410000 M⁻¹, the pKd was 5.62, the dH was -7.04 kcal/mol and the stoichiometry N is 1.03.
Regarding “UBA5 C-terminal part with A371E mutant (res. 325–404) (from UniProt Q9GZZ9 325-404) (domain or fragment)”, in assay [1], the Ka was 600000 M⁻¹, the negative-log Kd (pKd) is 5.80, the dH was -7.78 kcal/mol and the stoichiometry N was found to be 1.03.
In assay [1], “UBA5 C-terminal part with A371T mutant (res. 325–404) (from UniProt Q9GZZ9 325-404) (domain or fragment)” gave a Ka of 540000 M⁻¹, a pKd of 5.74, a dH of -7.88 kcal/mol and a stoichiometry N of 1.03.
For “UBA5 C-terminal regions R2 and R3, residues 359–404 (from UniProt Q9GZZ9 359-404) (peptide)”, in that order: 370000 M⁻¹, 5.57, -8.08 kcal/mol and 0.97.
